Experimental data published in patent US20090241202A1 (MICROMET, published 2009).

Biological target: T1, human EpCAM on Kato III gastric carcinoma cells (human, UniProt P16422 24-314)
T1 sequence (looked up): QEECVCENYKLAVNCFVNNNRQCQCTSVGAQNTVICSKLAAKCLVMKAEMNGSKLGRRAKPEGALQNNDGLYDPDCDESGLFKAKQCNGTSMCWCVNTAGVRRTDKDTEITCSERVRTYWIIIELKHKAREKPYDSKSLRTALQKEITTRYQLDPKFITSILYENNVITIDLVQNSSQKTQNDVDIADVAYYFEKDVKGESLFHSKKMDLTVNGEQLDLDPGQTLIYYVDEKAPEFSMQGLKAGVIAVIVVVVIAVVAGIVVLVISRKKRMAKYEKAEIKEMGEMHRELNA
Experiment: cell-based or functional assay

EC50 of ADCC (lysis of Kato III target cells), unstimulated human PBMC as effector cells, E:T 20:1: 2.11 µg/mL
potency of ADCC against Anti-EpCAM, prestimulated murine NK cells as effector cells: 43.7 fold
B1: domain-grafted Anti-EpCAM (antibody, mouse IgG2a, kappa, V domains shown)
VH: EVQLLESGGGVVQPGRSLRLSCAASGFTFSSYGMHWVRQAPGKGLEWVAVISYDGSNKYYADSVKGRFTISRDNSKNTLYLQMNSLRAEDTAVYYCAKDMGWGSGWRPYYYYGMDVWGQGTTVTVSS
VL: ELQMTQSPSSLSASVGDRVTITCRTSQSISSYLNWYQQKPGQPPKLLIYWASTRESGVPDRFSGSGSGTDFTLTISSLQPEDSATYYCQQSYDIPYTFGQGTKLEIKR
